This passage reports abundance fitness results from the Human Domainome abundance scans (Beltran et al. 2025).

B1: SWI/SNF-related matrix-associated actin-dependent regulator of chromatin subfamily B member 1, residues 181 to 248; numbered along this chain, Q12824 (parent)
chain: SQPEVLVPIRLDMEIDGQKLRDAFTWNMNEKLMTPEMFSEILCDDLDLNPLTFVPAIASAIRQQIESY
B2: Connector enhancer of kinase suppressor of ras 2, residues 9 to 71; numbered along this chain, Q8WXI2 (parent)
chain: SKWSPSQVVDWMKGLDDCLQQYIKNFEREKISGDQLLRITHQELEDLGVSRIGHQELILEAVD

± gives the uncertainty stated by the source.

The first data set covers variants of B1. The data set is described as follows: abundance fitness (aPCA) (normalised: wild type 0, dead -1); higher = more abundant; growth selection in yeast, the domain comes from the species named. As to conditions: Homo sapiens.
N49P: the abundance fitness is -0.097 ± 0.068.

Consider N49V, for which the abundance fitness was -0.814 ± 0.076.

Consider N49Y, for which the abundance fitness is -0.666 ± 0.11.

For M33A, the abundance fitness was -0.563 ± 0.091.

For the variant M33P, the abundance fitness is -0.113 ± 0.15.

For the variant M33H, the abundance fitness is -0.293 ± 0.12.

Turning to M33Q, the abundance fitness was -0.191 ± 0.076.

Consider M33S, for which the abundance fitness is -0.743 ± 0.14.

In the case of M33G, the abundance fitness was -0.797 ± 0.1.

Turning to M33T, the abundance fitness is -0.279 ± 0.21.

Turning to R21H, the abundance fitness turned out to be 0.164 ± 0.076.

On to R21S, for which the abundance fitness was -0.054 ± 0.055.

On to R21M, for which the abundance fitness is -0.073 ± 0.085.

For the variant R21F, the abundance fitness was -0.17 ± 0.11.

As for R21D, the abundance fitness was 0.133 ± 0.13.

On to N27H, for which the abundance fitness is -0.723 ± 0.17.

As to N27S, the abundance fitness was -0.582 ± 0.31.

As to N27R, the abundance fitness was -0.684 ± 0.14.

As for N27Q, the abundance fitness was -0.685 ± 0.14.

For N27D, the abundance fitness turned out to be 0.165 ± 0.23.

On to N27G, for which the abundance fitness was -0.622 ± 0.22.

Take N27M: the abundance fitness was -0.988 ± 0.36.

N27Y: the abundance fitness is -0.831 ± 0.28.

On to I65T, for which the abundance fitness was -0.141 ± 0.11.

As for I65G, the abundance fitness was -1.05 ± 0.23.

I65L: the abundance fitness is -0.069 ± 0.12.

Regarding I65C, the abundance fitness is 0.036 ± 0.24.

Take S1F: the abundance fitness was -0.132 ± 0.13.

For the variant S1K, the abundance fitness came to 0.167 ± 0.077.

For the variant S1A, the abundance fitness is -0.151 ± 0.074.

In the case of S1E, the abundance fitness turned out to be 0.194 ± 0.081.

On to L48E, for which the abundance fitness was -0.678 ± 0.16.

In the case of L48W, the abundance fitness is -0.888 ± 0.18.

L48G: the abundance fitness is -0.66 ± 0.077.

Regarding F38T, the abundance fitness is -0.722 ± 0.28.

R10S: the abundance fitness is -0.444 ± 0.18.

Consider R10T, for which the abundance fitness was 0.135 ± 0.055.

Take R10P: the abundance fitness is -0.386 ± 0.27.

Turning to R10V, the abundance fitness is -0.024 ± 0.079.

For S67M, the abundance fitness was -0.103 ± 0.13.

Turning to S67D, the abundance fitness was -0.055 ± 0.12.

Regarding S67F, the abundance fitness was -0.06 ± 0.066.

Take S67V: the abundance fitness was -0.098 ± 0.058.

Regarding S67K, the abundance fitness was -0.2 ± 0.14.

For D16Q, the abundance fitness was -0.168 ± 0.062.

With D16R, the abundance fitness is -0.415 ± 0.044.

Turning to D16S, the abundance fitness is -0.39 ± 0.048.

In the case of D16F, the abundance fitness was -0.928 ± 0.31.

With F24W, the abundance fitness was -0.293 ± 0.063.

For F24M, the abundance fitness was -0.71 ± 0.11.

For F24S, the abundance fitness is -0.822 ± 0.098.

As for F24V, the abundance fitness was -0.331 ± 0.051.

For the variant Q63Y, the abundance fitness amounted to 0.105 ± 0.2.

With Q63A, the abundance fitness is -0.057 ± 0.043.

Consider Q63L, for which the abundance fitness is -0.276 ± 0.045.

Turning to Q63E, the abundance fitness is -0.163 ± 0.11.

Q63P: the abundance fitness was -0.758 ± 0.2.

Consider M13I, for which the abundance fitness was -0.149 ± 0.29.

M13W: the abundance fitness is -0.606 ± 0.41.

For the variant M13G, the abundance fitness is -0.718 ± 0.25.

With M28V, the abundance fitness was -0.086 ± 0.14.

As to S39R, the abundance fitness is -0.797 ± 0.36.

For D44V, the abundance fitness was -0.008 ± 0.27.

On to D44I, for which the abundance fitness was -0.259 ± 0.17.

For the variant D44Q, the abundance fitness was -0.028 ± 0.11.

Consider D44T, for which the abundance fitness is -0.467 ± 0.28.

Regarding D44N, the abundance fitness was -0.403 ± 0.47.

With I61L, the abundance fitness was -0.725 ± 0.26.

On to I61K, for which the abundance fitness was -0.75 ± 0.17.

As to I61S, the abundance fitness was -1.06 ± 0.17.

For I61R, the abundance fitness was -0.878 ± 0.12.

Turning to I41Q, the abundance fitness was 0.211 ± 0.06.

For I41K, the abundance fitness turned out to be 0.314 ± 0.05.

Consider I41V, for which the abundance fitness was 0.01 ± 0.04.

Regarding I41S, the abundance fitness turned out to be 0.174 ± 0.033.

As to I41F, the abundance fitness was -0.103 ± 0.092.

For I41Y, the abundance fitness is -0.057 ± 0.076.

With I41D, the abundance fitness was -0.04 ± 0.12.

Consider I41H, for which the abundance fitness was determined as 0.034 ± 0.061.

For I41E, the abundance fitness stood at 0.131 ± 0.043.

Consider E4T, for which the abundance fitness is -0.281 ± 0.11.

For E4A, the abundance fitness is -0.166 ± 0.062.

E4R: the abundance fitness was -0.234 ± 0.041.

For E4V, the abundance fitness came out at 0.047 ± 0.12.

Turning to E4L, the abundance fitness was -0.292 ± 0.056.

On to E4Q, for which the abundance fitness was -0.182 ± 0.075.

Turning to E4C, the abundance fitness is -0.32 ± 0.063.

Turning to E4G, the abundance fitness is -0.354 ± 0.17.

As for E4I, the abundance fitness was -0.495 ± 0.17.

As for A56P, the abundance fitness is -0.564 ± 0.16.

For the variant A56C, the abundance fitness is -0.384 ± 0.066.

Consider A56Q, for which the abundance fitness was -0.095 ± 0.12.

Take A56D: the abundance fitness is -0.552 ± 0.11.

In the case of A56V, the abundance fitness was -0.319 ± 0.052.

Turning to A56K, the abundance fitness was -0.041 ± 0.13.

A56T: the abundance fitness was -0.566 ± 0.11.

For A56I, the abundance fitness was -0.375 ± 0.11.

In the case of A56W, the abundance fitness is -0.628 ± 0.086.

Consider A56M, for which the abundance fitness is -0.416 ± 0.11.

Turning to A56E, the abundance fitness was -0.134 ± 0.049.

Take L51D: the abundance fitness worked out at 0.125 ± 0.18.

As to L51H, the abundance fitness came out at 0.002 ± 0.083.

For the variant L51A, the abundance fitness amounted to 0.041 ± 0.088.

In the case of L51V, the abundance fitness came out at 0.042 ± 0.11.

As to L51T, the abundance fitness was -0.174 ± 0.12.

In the case of E14K, the abundance fitness was -0.334 ± 0.45.

With E14D, the abundance fitness was found to be 0.026 ± 0.15.

As to E14S, the abundance fitness was -0.071 ± 0.12.

On to A23I, for which the abundance fitness is -0.076 ± 0.17.

As for A23V, the abundance fitness worked out at 0.116 ± 0.054.

Turning to A23Q, the abundance fitness was 0.09 ± 0.09.

With A23K, the abundance fitness turned out to be 0.102 ± 0.083.

On to A23L, for which the abundance fitness was -0.387 ± 0.15.

Turning to A23Y, the abundance fitness is -0.147 ± 0.11.

On to A23T, for which the abundance fitness was determined as 0.155 ± 0.056.

As to A23D, the abundance fitness is 0.211 ± 0.063.

For A23S, the abundance fitness turned out to be 0.089 ± 0.064.

As for K31V, the abundance fitness is -0.146 ± 0.061.

Take K31F: the abundance fitness is -0.397 ± 0.42.

K31S: the abundance fitness was -0.063 ± 0.065.

K31T: the abundance fitness was found to be 0.084 ± 0.096.

For K31Q, the abundance fitness was -0.085 ± 0.07.

In the case of V54I, the abundance fitness is -0.241 ± 0.077.

Take V54R: the abundance fitness was -0.22 ± 0.16.

For the variant I57N, the abundance fitness was -0.542 ± 0.13.

For I57F, the abundance fitness is -0.957 ± 0.15.

I57Y: the abundance fitness is -0.713 ± 0.19.

In the case of I57R, the abundance fitness was -0.912 ± 0.11.

For the variant I57G, the abundance fitness is -0.781 ± 0.1.

As for I57V, the abundance fitness was -0.177 ± 0.056.

I57W: the abundance fitness was -0.615 ± 0.2.

The variants in the next data set derive from B2. The description is as above. As to conditions: Homo sapiens.
Consider Y22A, for which the abundance fitness is -0.863 ± 0.035.

In the case of R38I, the abundance fitness is -0.543 ± 0.046.

Turning to C18F, the abundance fitness is -0.823 ± 0.077.

On to D16M, for which the abundance fitness is -0.669 ± 0.056.

With S32H, the abundance fitness is -0.361 ± 0.082.

As for F26Y, the abundance fitness was -0.908 ± 0.09.

As for L15T, the abundance fitness was -0.427 ± 0.032.

For V49P, the abundance fitness is -0.875 ± 0.056.

As for E27F, the abundance fitness is -0.47 ± 0.16.

G14K: the abundance fitness was -0.264 ± 0.045.

For Q42I, the abundance fitness was -0.558 ± 0.086.

As to Q42Y, the abundance fitness was -0.848 ± 0.1.

I52R: the abundance fitness was determined as 0.065 ± 0.024.

For L47A, the abundance fitness is -0.681 ± 0.032.

In the case of P5V, the abundance fitness is -0.047 ± 0.025.

With L19C, the abundance fitness is -0.244 ± 0.034.

In the case of L44V, the abundance fitness is -0.79 ± 0.045.

Take L44K: the abundance fitness is -0.791 ± 0.068.

For the variant E45C, the abundance fitness is -0.018 ± 0.031.

Regarding S1A, the abundance fitness is -0.2 ± 0.046.

L57S: the abundance fitness is -0.298 ± 0.033.

As to L57G, the abundance fitness was -0.635 ± 0.043.

Take Q20D: the abundance fitness was -0.259 ± 0.033.

Consider D63H, for which the abundance fitness stood at 0 ± 0.045.

Turning to E43P, the abundance fitness is -0.987 ± 0.077.

For E43W, the abundance fitness is -0.498 ± 0.04.

With E60Q, the abundance fitness stood at 0.006 ± 0.046.

As for V62F, the abundance fitness is -0.921 ± 0.084.

As to G48N, the abundance fitness is -0.66 ± 0.078.

On to V9D, for which the abundance fitness was -0.66 ± 0.052.

Take K13S: the abundance fitness was -0.179 ± 0.027.

As to K2D, the abundance fitness is -0.053 ± 0.033.

Consider L37P, for which the abundance fitness is -0.407 ± 0.041.

D17M: the abundance fitness was -0.268 ± 0.035.

Take D17I: the abundance fitness was -0.4 ± 0.043.

Take D17K: the abundance fitness was -0.186 ± 0.041.
